For this assay, the target named is mCh-vinT12-cBAK (constitutively active, opened form of full-length vinculin, mCherry-tagged, with cBAK) (gallus gallus) (UniProt P12003). The assay can be described thus: Fluorescence Loss After Photoactivation.

One substance from article doi:10.1101/629683 can be followed below.

Chain of UniProt P12003 (P12003 whole entry): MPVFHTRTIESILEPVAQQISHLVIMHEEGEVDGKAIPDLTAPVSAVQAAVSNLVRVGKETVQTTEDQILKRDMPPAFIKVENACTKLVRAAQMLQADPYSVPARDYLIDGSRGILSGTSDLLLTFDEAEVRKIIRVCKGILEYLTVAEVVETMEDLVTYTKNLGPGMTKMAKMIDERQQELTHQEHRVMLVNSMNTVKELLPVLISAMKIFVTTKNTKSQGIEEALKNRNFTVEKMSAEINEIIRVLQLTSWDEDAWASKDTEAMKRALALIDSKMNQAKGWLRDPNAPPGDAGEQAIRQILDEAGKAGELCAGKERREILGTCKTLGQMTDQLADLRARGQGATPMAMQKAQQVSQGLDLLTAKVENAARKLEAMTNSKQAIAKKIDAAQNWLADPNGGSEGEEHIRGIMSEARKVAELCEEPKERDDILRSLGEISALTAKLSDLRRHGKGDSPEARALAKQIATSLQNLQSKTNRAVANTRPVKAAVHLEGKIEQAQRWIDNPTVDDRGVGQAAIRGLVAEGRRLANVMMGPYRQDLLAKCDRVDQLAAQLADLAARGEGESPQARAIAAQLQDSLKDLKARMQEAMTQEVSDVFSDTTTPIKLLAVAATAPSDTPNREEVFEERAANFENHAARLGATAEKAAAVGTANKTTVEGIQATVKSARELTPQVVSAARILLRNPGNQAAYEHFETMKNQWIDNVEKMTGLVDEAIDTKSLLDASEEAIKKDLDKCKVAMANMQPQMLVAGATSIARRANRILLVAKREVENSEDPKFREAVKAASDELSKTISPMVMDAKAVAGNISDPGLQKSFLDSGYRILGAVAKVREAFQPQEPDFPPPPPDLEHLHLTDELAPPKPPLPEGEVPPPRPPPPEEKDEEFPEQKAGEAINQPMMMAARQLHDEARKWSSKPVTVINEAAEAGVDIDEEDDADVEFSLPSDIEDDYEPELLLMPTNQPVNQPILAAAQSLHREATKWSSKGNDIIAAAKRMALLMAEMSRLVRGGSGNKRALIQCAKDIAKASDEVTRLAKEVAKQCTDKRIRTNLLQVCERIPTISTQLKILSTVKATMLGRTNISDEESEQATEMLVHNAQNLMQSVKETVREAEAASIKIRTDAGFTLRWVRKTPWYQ

Take “Photo-Activatable (PA) GFP-TalinFL (from UniProt P26039 1-2541) (natural protein)”: the mobile fraction (Mf) in FLAP was under 20%.
